Test results: patent US20260034217A1 (REGENTS OF THE UNIVERSITY OF COLORADO A BODY CORPORATE, published 2026)

Molecular target: CD64 (high affinity immunoglobulin gamma Fc receptor I) (human, UniProt P12314 16-374)
Test: cell-based or functional assay

CD64 (high affinity immunoglobulin gamma Fc receptor I), sequence (P12314 16-374, form in doubt): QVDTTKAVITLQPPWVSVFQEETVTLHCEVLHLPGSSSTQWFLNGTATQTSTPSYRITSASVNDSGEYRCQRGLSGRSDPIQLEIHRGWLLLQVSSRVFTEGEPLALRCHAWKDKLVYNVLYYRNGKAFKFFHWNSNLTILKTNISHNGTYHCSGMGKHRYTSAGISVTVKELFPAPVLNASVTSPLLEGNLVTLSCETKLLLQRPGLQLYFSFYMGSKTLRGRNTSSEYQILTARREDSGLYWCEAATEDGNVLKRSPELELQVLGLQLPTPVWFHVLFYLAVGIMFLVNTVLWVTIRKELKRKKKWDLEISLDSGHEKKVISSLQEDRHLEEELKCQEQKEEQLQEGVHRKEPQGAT

B1: CD64-BB-m22 CAR (CD64 CAR containing the m22 scFv and a 4-1BB costimulatory domain) (other)
chain: EVQLVESGGGLVKPGGSLRLSCVASGFIFSDNYMYWVRQTPEKRLEWVATISDGGSYTYYPDSVKGRFTISRDNAKNNLYLQMSSLKSEDTAIYYCARGYYRYEGAMDYWGQGTSVTVSSGGGGSGGGGSGGGGSNIVMTQSPSSLAVSAGEKVTMSCKSSQSVLYSSNQKNYLAWYQQKPGQSPKLLIYWASTRESGVPDRFTGSGSGTDFTLTISSVQAEDLAVYYCHQYLSSWTFGGGTKLEIKTSTTTPAPRPPTPAPTIASQPLSLRPEACRPAAGGAVHTRGLDFACDIYIWAPLAGTCGVLLLSLVITLYCKRGRKKLLYIFKQPFMRPVQTTQEEDGCSCRFPEEEEGGCELSRVKFSRSADAPAYQQGQNQLYNELNLGRREEYDVLDKRRGRDPEMGGKPRRKNPQEGLYNELQKDKMAEAYSEIGMKGERRRGKGHDGLYQGLSTATKDTYDALHMQALPPR
B1 was tested, and the “fold decrease in CD64+ AML cells (monocytic patient sample), flow cytometry, CAR-T with or without ven/aza” value was greater than 40 fold and the “fold decrease in viable AML cells (mixed monocytic/primitive patient sample), flow cytometry after 48 hours with CAR-T cells alone” value was 4.2 fold.
